Measured values taken from US20200239555A1 (STATEN BIOTECHNOLOGY B V, published 2020).
Positions count from the first letter of the chain named.

Columns and labels:
[1] = target: T1, biotinylated native human ApoC3 (human, UniProt P02656 21-99, biotinylated (site not stated)); assay: SPR, scFv-Fc over biotinylated ApoC3 on SA chip, pH 7.4
T1 construct: also called biotinylated human ApoC3

[2] = target: T1, biotinylated native human ApoC3; assay: SPR, scFv-Fc over biotinylated ApoC3 on SA chip, pH 5.5
[3] = target: T1, biotinylated native human ApoC3; assay: SPR, scFv-Fc over biotinylated ApoC3 on SA chip
[4] = target: T1, biotinylated native human ApoC3; assay: SPR, IgG1 over biotinylated ApoC3 on SA chip
Experimental: (§1) Biotinylated native human ApoC3 was captured on a streptavidin coated SPR chip (GE Healthcare, cat. nr. BR100032) at pH 7.4, in accordance with the method provided by Biacore, by injection of 20 μl 10 μg/ml biotinylated native human ApoC3 reaching the surface density of approximately 500 RU. 60 μL of test antibody in 1-50 nM range diluted in HBS-EP buffer (GE, cat # BR-1008-26; 0.010 M HEPES, 0.150M NaCl, 3 mM EDTA, 0.05% (v/v) surfactant P20, pH 7.4) was injected and passed through the flow cells at a flow rate of 30 μl/min, followed by an off-rate wash at pH7.4 for 5 min. After the dissociation, the flow cell surfaces were regenerated by injecting 10 μl of 10 mM NaOH/1 M NaCl and 10 μl of 10 mM glycine at pH1.5. The assay was repeated at pH5.5 using the same general protocol, where the running and sample dilution buffer was replaced by a HBS-EP buffer supplemented with citrate buffer to 10 mM final concentration and pH adjusted to 5.5.
(§2) The resulting sensorgrams were analyzed using the BIAevaluation 4.1 software using Langmuir 1:1 binding model to derive binding kinetics. Data was zero adjusted and the reference cell sensorgrams were subtracted. Sensorgrams were double referenced to no-analyte blank assay. Fitted parameters were considered not applicable if off-rate values were below the equipment's detection limit of kd: 1×10⁻⁶ 1/s.

[5] = target: T1, biotinylated native human ApoC3; assay: SPR, IgG1 over biotinylated ApoC3 on SA chip, pH 5.5
Experimental: as §1, §2

[6] = target: T2, native human ApoC3 (human, UniProt P02656 21-99); assay: SPR, IgG1 over ApoC3 on CM5 chip, pH 7.4
T2 construct: also called nhuApoC3; native huApoC3
T2 sequence (P02656 21-99): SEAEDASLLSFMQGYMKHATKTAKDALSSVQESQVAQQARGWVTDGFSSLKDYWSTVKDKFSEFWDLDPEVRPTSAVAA
Experimental: (§3) Based on the results in Example 1, test scFv-Fc antibodies were generated as human IgG₁ antibodies. An SPR-based assay was employed, in which human ApoC3 protein was immobilized on a CM5 chip, and the binding kinetics of test antibodies to the coated chip were measured at both pH 7.4 and pH 5.5. Briefly, a solution of 50 μg/ml of native human ApoC3 in 10 mM acetate buffer at pH 4.5 was prepared and injected until the surface density reached approximately 500 RU. 60 μl of each test antibody was diluted in HBS-EP buffer (GE, cat. nr. BR-1008-26; 0.010 M HEPES, 0.150M NaCl, 3 mM EDTA, 0.05% (v/v) surfactant P20, pH 7.4), and was injected at a concentration as described in Table 9. The test antibodies were passed through the flow cells at a flow rate of 30 μl/min, followed by an off-rate wash at pH 7.4 or pH 5.5 for 5 min. The resulting sensorgrams were analyzed using the BIAevaluation 4.1 software applying the Langmuir 1:1 binding model to derive binding kinetics. Data was zero adjusted and the reference cell sensorgrams were subtracted.

[7] = target: T2, native human ApoC3; assay: SPR, IgG1 over ApoC3 on CM5 chip, pH 5.5
Experimental: as §3

[8] = target: T1, biotinylated native human ApoC3; assay: SPR, IgG1 over biotinylated ApoC3 on SA chip, pH 7.4
Experimental: as §1, §2

[9] = target: T1, biotinylated native human ApoC3; assay: SPR, IgG1 over biotinylated ApoC3 on SA chip, pH 5.5; pH 5.5
[10] = target: T1, biotinylated native human ApoC3; assay: SPR, IgG1 over biotinylated ApoC3 on SA chip, pH 7.4; pH 7.4; native ApoC3 on CM5 chip
[11] = target: T2, native human ApoC3; assay: SPR, ApoC3 over captured IgG1, pH 7.4
Experimental: (§4) An inverted SPR assay was designed in which a test antibody was captured on an SPR chip, human ApoC3 protein was injected, and binding of ApoC3 to the antibody was measured. […] The immobilization was performed in accordance with the method provided by Biacore/GE using the NHS/EDC kit (Biacore AB, Cat.nr. BR-1000-50): after activation of the chip, a solution of 30 μg/ml of anti-human Fcγ antibody in 10 mM acetate buffer with pH of 5.0 was prepared and injected until the surface density reached approximately 10000 RU. The analytical cycle comprised the following steps:
(§5) The resulting sensorgrams were analyzed using the BIAevaluation 4.1 software using Langmuir 1:1 binding model to derive binding kinetics. Data was zero adjusted, the reference cell sensorgrams were subtracted and the no analyte blank assay was used for double referencing the sensorgrams corresponding to the analyte injections. The dissociation and association phase sensorgrams were fitted separately for the 4 different concentration curves. Sensorgrams were excluded from the fitting if maximum RU values reached were below the detection limit of the equipment (<5 RU), Biacore 3000 (Biacore AB).

[12] = target: T2, native human ApoC3; assay: SPR, IgG1 over ApoC3 on CM5 chip, pH 7.4; pH 7.4; IgG1 over native ApoC3 on CM5 chip
Experimental: as §3

[13] = target: T2, native human ApoC3; assay: SPR, ApoC3 over captured IgG1, pH 7.4; pH 7.4; ApoC3 600-50 nM over immobilized antibody
Experimental: as §4, §5

T1 sequence (P02656 21-99): as above

B1: 5E5WT scFv-Fc (scFv, part only; not given: Linker, domain order, Fc, V domains shown, not shown: another chain or arm of the molecule; a dimerising Fc or GST; small tags and cut ends)
VH: QLQLVESGGGLVQPGGSLRLSCAASGFTFGTYSMRWVRQVPRKALEWVSSISTDGGGTAYRDSVKGRFTISRDNAKNTLYLQMNNLKPEDTAIYYCVIAGYSDWGQGTQVTVSS
VL: ATMLTQSPGSLSVVPGESASISCKTSQGLVHSDGKTYFYWFLQKPGQSPQQLIYQVSNRASGVPDRFTGSGSGTDFTLKISGVKAEDAGVYYCAQGTYYPHTFGSGTRLEIK
B1 showed a Kd [1] of 0.02 nM, a koff [1] of 1.75e-05 s⁻¹ and a kon [1] of 823000 M⁻¹ s⁻¹. The Kd [2] was 0.06 nM, the koff [2] was 2.53e-05 s⁻¹ and the kon [2] was 393000 M⁻¹ s⁻¹. The KD pH 5.5/KD pH 7.4 [3] was 3.

B2: 5E5WT human IgG1 (antibody, V domains shown)
VH: B1 VH
VL: B1 VL
B2 was tested, and the “KD pH5.5/KD pH7.4” value [4] was 0.97, the Kd [5] was 0.05 nM and the koff [5] was 1.7e-05 s⁻¹. For the same binder, the kon [5] was 340000 M⁻¹ s⁻¹, the koff [6] was 1.79e-05 s⁻¹ and the kon [6] was 350000 M⁻¹ s⁻¹. The koff [7] was 1.7e-05 s⁻¹, the kon [7] was 340000 M⁻¹ s⁻¹ and the Ka [8] was 1.95e+10 M⁻¹. The Kd [8] was 0.05 nM, the koff [8] was 1.79e-05 s⁻¹ and the Ka [9] was 2.01e+10 M⁻¹. The kon [10] was 350000 M⁻¹ s⁻¹.

B3: 5E5VH5_VLWT scFv-Fc (scFv, part only; not given: Linker, domain order, Fc, V domains shown, not shown: another chain or arm of the molecule; a dimerising Fc or GST; small tags and cut ends)
VH: B1 VH with S52H
VL: B1 VL
B3 showed a Kd [1] of 0.59 nM, a koff [1] of 0.000105 s⁻¹ and a kon [1] of 178000 M⁻¹ s⁻¹. For the same binder, the koff [2] was 0.0016 s⁻¹, the kon [2] was 147000 M⁻¹ s⁻¹ and the KD pH 5.5/KD pH 7.4 [3] was 18.5.

B4: 5E5VHWT_VL8 scFv-Fc (scFv, part only; not given: Linker, domain order, Fc, V domains shown, not shown: another chain or arm of the molecule; a dimerising Fc or GST; small tags and cut ends)
VH: B1 VH
VL: B1 VL with Q95H
Binder B4 has a Kd [1] of 0.58 nM, a koff [1] of 0.000221 s⁻¹ and a kon [1] of 381000 M⁻¹ s⁻¹. The koff [2] was 0.00116 s⁻¹, the kon [2] was 269000 M⁻¹ s⁻¹ and the KD pH 5.5/KD pH 7.4 [3] was 7.4.

B5: 5E5VH12_VLWT scFv-Fc (scFv, part only; not given: Linker, domain order, Fc, V domains shown, not shown: another chain or arm of the molecule; a dimerising Fc or GST; small tags and cut ends)
VH: B1 VH with A99H
VL: B1 VL
B5 was tested, and the Kd [1] was 0.51 nM, the koff [1] was 0.000157 s⁻¹ and the kon [1] was 308000 M⁻¹ s⁻¹. It also gave a Kd [2] of 16 nM, a koff [2] of 0.00206 s⁻¹ and a kon [2] of 129000 M⁻¹ s⁻¹. For the same binder, the KD pH 5.5/KD pH 7.4 [3] was 31.4.

B6: 5E5VH5_VLWT human IgG1 (antibody, V domains shown)
VH: B1 VH with S52H
VL: B1 VL
B6 was tested, and the koff [6] was 3.77e-05 s⁻¹, the kon [6] was 178000 M⁻¹ s⁻¹ and the koff [7] was 0.000203 s⁻¹. The kon [7] was 155000 M⁻¹ s⁻¹.

B7: 5E5VH12_VL8 human IgG1 (antibody, V domains shown)
VH: B1 VH with A99H
VL: B1 VL with Q95H
notes: Tested as human IgG1
For B7, the koff [6] was 0.000163 s⁻¹, the kon [6] was 267000 M⁻¹ s⁻¹ and the koff [7] was 0.00165 s⁻¹. The kon [7] was 188000 M⁻¹ s⁻¹.

B8: 5E5VH5_VL8 human IgG1 (antibody, V domains shown)
VH: B1 VH with S52H
VL: B1 VL with Q95H
notes: Tested as human IgG1; the tested lot is not tied to them in words
In the case of B8, the “KD pH5.5/KD pH7.4” value [4] is reported as 11.7, the Ka [5] is reported as 8.74e+07 M⁻¹ and the koff [5] is reported as 0.00242 s⁻¹. The kon [5] was 211000 M⁻¹ s⁻¹, the koff [6] was 0.000173 s⁻¹ and the kon [6] was 177000 M⁻¹ s⁻¹. The koff [7] was 0.00242 s⁻¹, the kon [7] was 211000 M⁻¹ s⁻¹ and the Ka [8] was 1.03e+09 M⁻¹. The Kd [8] was 0.98 nM, the koff [8] was 0.000173 s⁻¹ and the kon [8] was 177000 M⁻¹ s⁻¹. It also gave a Ka [11] of 3.35e+06 M⁻¹, a koff [11] of 0.0127 s⁻¹ and a kon [11] of 42700 M⁻¹ s⁻¹.

B9: 5E5VH5VH12_VLWT human IgG1 (antibody, V domains shown)
VH: B1 VH with S52H, A99H
VL: B1 VL
B9 gave a koff [6] of 0.000305 s⁻¹, a kon [6] of 61600 M⁻¹ s⁻¹ and a koff [7] of 0.00316 s⁻¹. For the same binder, the kon [7] was 156000 M⁻¹ s⁻¹.

B10: 5E5VHWT_VL8 human IgG1 (antibody, V domains shown)
VH: B1 VH
VL: B1 VL with Q95H
B10 was tested, and the koff [6] was 2.84e-05 s⁻¹, the kon [6] was 782000 M⁻¹ s⁻¹ and the koff [7] was 4.06e-05 s⁻¹. For the same binder, the kon [7] was 731000 M⁻¹ s⁻¹.

B11: 5E5VH5VH12_VL8 human IgG1 (antibody, V domains shown)
VH: B1 VH with S52H, A99H
VL: B1 VL with Q95H
B11 showed a koff [12] of 0.0028 s⁻¹ and a kon [12] of 125000 M⁻¹ s⁻¹.

B12: mAb13 (antibody, IgG1, V domains shown)
VH: QLLESGGGLVQPGGSLRLSCAASGFTFSTYSMRWVRQVPGKGLEWVSSIHTEGGGTAYRDSVKGRFTISRDNSKNTLYLQMNSLRAEDTAVYYCVIAGYSDWGQGTLVTVSS
VL: DIVMTQSPLSLPVTPGEPASISCKTSQGLVHSDGKTYFYWYLQKPGQSPQLLIYQVSNRASGVPDRFSGSGSGTDFTLKISRVEAEDVGVYYCAHGTYYPHTFGQGTRLEIK
notes: Produced as full length IgG1 (kappa) in ExpiCHO-S cells; CDR graft into the closest human germline frameworks; also called humanized anti-ApoC3 antibody mAb13; variant 13
With B12 the “KD pH5.5/KD pH7.4” value [4] was 1.33, the Ka [5] was 1.8e+08 M⁻¹ and the koff [5] was 0.00267 s⁻¹. It also gave a kon [5] of 479000 M⁻¹ s⁻¹, a Ka [13] of 998000 M⁻¹ and a koff [13] of 0.037 s⁻¹. The kon [13] was 37000 M⁻¹ s⁻¹, the Ka [8] was 2.38e+08 M⁻¹ and the koff [8] was 0.000461 s⁻¹. The kon [8] was 110000 M⁻¹ s⁻¹.

B13: mAb14 (antibody, IgG1, V domains shown)
VH: B12 VH with S28G
VL: B12 VL
notes: Produced as full length IgG1 (kappa) in ExpiCHO-S cells; CDR graft into the closest human germline frameworks; also called humanized anti-ApoC3 antibody mAb14; variant 14
With B13 the “KD pH5.5/KD pH7.4” value [4] was 7.2, the Ka [5] was 4.7e+07 M⁻¹ and the koff [5] was 0.00788 s⁻¹. It also gave a kon [5] of 370000 M⁻¹ s⁻¹, a Ka [13] of 567000 M⁻¹ and a koff [13] of 0.0458 s⁻¹. It also gave a kon [13] of 26000 M⁻¹ s⁻¹, a Ka [8] of 3.38e+08 M⁻¹ and a koff [8] of 0.000427 s⁻¹. For the same binder, the kon [8] was 144000 M⁻¹ s⁻¹.
